The source of these data is patent publication US20250388684A1 (SICHUAN SWIFTBIO BIOTECHNOLOGY, published 2025).

Experiment [1] concerns the target T1, human CCR4 (human, UniProt P51679 1-360).
T1 construct: whole, on cells; also called h.CCR4; HEK293T-h.CCR4
T1 sequence (looked up): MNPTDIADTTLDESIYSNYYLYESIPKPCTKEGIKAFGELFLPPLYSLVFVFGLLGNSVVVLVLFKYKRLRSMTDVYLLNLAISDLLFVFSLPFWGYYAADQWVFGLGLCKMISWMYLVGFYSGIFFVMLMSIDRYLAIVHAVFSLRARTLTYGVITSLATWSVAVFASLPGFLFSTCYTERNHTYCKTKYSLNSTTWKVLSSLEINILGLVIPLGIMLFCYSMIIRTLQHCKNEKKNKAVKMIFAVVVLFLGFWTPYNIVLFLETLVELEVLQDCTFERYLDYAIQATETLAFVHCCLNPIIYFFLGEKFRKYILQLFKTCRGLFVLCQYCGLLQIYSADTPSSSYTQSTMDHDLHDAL
Put plainly: FACS on HEK293T-h.CCR4 cells. As to the method: Evaluate the specificity of anti-human CCR8 mouse monoclonal antibodies using FACS. The experimental steps are as follows: digest HEK293T-h.CCR4 cells, centrifuge to collect the cells, and wash three times with pre-cooled PBS. Resuspend the cells in 1% BSA (in PBS), adding 3×10\hat{ }5 cells in a volume of 50 μL to each well of a 96-well V-bottom plate. Dilute the antibody to be tested in 1% BSA (in PBS) to 20 μg/mL, take 50 μL per well, and add it to the cells, resulting in a final antibody concentration of 10 μg/mL. Mix and incubate at 4° C. for 1 hour. Centrifuge to collect the cells and wash three times with pre-cooled PBS. Resuspend the cells in 50 μL of 1% BSA (in PBS), add 1 μL of fluorescent secondary antibody to each well, mix, and incubate at 4° C. for 0.5 hours. Centrifuge to collect the cells, wash three times with pre-cooled PBS, resuspend the cells in 200 μL of PBS, and analyze them.

Experiment [2] concerns the target T2, cynomolgus monkey CCR8 (cynomolgus monkey, UniProt G7NYJ2 1-355).
T2 construct: whole, on cells; also called c.CCR8; HEK293T-c.CCR8
Nature of the experiment: FACS on HEK293T-c.CCR8 cells, mouse antibody.

Experiment [3] deals with T3, human CCR8 (C-C chemokine receptor type 8) (human, UniProt P51685 1-355).
T3 construct: whole, on cells; also called h.CCR8; HEK293T-h.CCR8
Nature of the experiment: FACS on HEK293T-h.CCR8 cells, mouse antibody.

Experiment [4] has as its target T3, human CCR8 (C-C chemokine receptor type …). Nature of the experiment: cell-based or functional assay.
Experiment [5] addresses T2, cynomolgus monkey CCR8. Nature of the experiment: FACS on HEK293T-c.CCR8 cells.
For experiment [6], the target named is T1, human CCR4. Put plainly: FACS on HEK293T-h.CCR4 cells. As to the method: The specificity of humanized monoclonal antibodies against human CCR4 was assessed using FACS. HEK293T-h.CCR4 cells were collected, washed, and resuspended in 1% BSA (in PBS). Each well of a 96-well V-bottom plate received 3×10\hat{ }5 cells, followed by the addition of the test antibodies at a final concentration of 20 μg/mL and incubation at 4° C. for one hour. After washing, 1 μL of fluorescent secondary antibody (Biolegend, Catalog No.: 410708) was added, and the mixture was incubated. The cells were washed and resuspended for detection using a flow cytometer (Beckman, Model: CytoFLEX).
This is another data set of the same source.

The target of experiment [7] is T3, human CCR8 (C-C chemokine receptor type …). Nature of the experiment: FACS on HEK293T-h.CCR8 cells, test 1. As to the method: (§1) The affinity of humanized monoclonal antibodies against human CCR8 was assessed using FACS. The experimental procedure was as follows: HEK293T-h.CCR8 cells were digested and collected by centrifugation, followed by three washes with pre-cooled PBS. The cells were resuspended in 1% BSA (in PBS), with 3×10\hat{ }5 cells added to each well of a 96-well V-bottom plate (50 μL per well). Prepare the antibody dilution series in 1% BSA (in PBS), starting from 40 μg/mL. Perform a 3-fold serial dilution across 10 concentration points. Add 50 μL per well to the cells, so that the final antibody concentration in the wells starts from 20 μg/mL. Mix thoroughly and incubate at 4° C. for 1 hour. The cells were collected by centrifugation, washed three times with pre-cooled PBS, resuspended in 50 μL 1% BSA (in PBS), and 1 μL of fluorescent secondary antibody (Biolegend, Catalog No.: 410708) was added to each well. The mixture was incubated at 4° C. for 30 minutes, followed by three washes with pre-cooled PBS. The cells were then resuspended in 200 μL PBS for detection.

Experiment [8] has the same target. Put plainly: FACS on HEK293T-h.CCR8 cells, test 2 (anti-human Alexa Fluor 647 secondary antibody). Here is the method: as §1

Where two headings read alike, the source gives them in different places.

T3 sequence (P51685 whole entry): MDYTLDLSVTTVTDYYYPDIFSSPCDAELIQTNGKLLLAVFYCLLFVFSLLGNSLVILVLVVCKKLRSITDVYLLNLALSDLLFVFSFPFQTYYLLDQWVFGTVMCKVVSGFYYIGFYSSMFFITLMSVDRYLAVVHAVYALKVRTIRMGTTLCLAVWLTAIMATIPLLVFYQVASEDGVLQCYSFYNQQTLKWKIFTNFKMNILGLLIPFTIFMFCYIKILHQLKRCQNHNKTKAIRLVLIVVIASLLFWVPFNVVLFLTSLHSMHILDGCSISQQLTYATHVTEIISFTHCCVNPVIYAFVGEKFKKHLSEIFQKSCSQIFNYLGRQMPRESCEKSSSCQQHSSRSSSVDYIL
T2 sequence (G7NYJ2 entry or part of it): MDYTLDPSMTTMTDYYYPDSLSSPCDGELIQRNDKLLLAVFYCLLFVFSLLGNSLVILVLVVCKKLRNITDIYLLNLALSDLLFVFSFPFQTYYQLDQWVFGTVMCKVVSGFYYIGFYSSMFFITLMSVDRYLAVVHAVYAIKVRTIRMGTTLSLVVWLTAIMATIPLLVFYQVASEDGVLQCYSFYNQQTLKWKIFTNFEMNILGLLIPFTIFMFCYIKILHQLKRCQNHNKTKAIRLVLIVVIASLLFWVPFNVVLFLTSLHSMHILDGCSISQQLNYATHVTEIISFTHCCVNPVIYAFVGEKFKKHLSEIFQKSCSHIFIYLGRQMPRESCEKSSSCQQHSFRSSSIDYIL

B1: 13F3H6 (anti-human CCR8 mouse monoclonal antibody) (antibody, V domains shown)
VH: EVQLVESGGGLVRPKGSLKFSCAASGFTFNAYAMNWVRQAPGKGLEWVARIRTKSNNYATYYADSVKDRFTISRDDSENMLYLQMNNLKTEDTAIYYCVRHKKVREGYAMDYWGQGTSVTVSS
VL: DIVLTQSPASLVLSLGQRATISCRASKSVSTSGYTYMHWYQQKPGQPPKLLIYLASNLESGVPARFSGSGSGTDFTLNIHPVEEEDAATYYCQHSRELPFTFGSGTKLEIK
notes: Mouse antibody purified from hybridoma supernatant
On to B1, for which, in the experiment with human CCR4 [1], the binding result was “no binding (tested: 10 µg/mL)”. The concentration giving a half-maximal response (EC50) was 0.288 mg/L in the experiment with cynomolgus monkey CCR8 [2] and 0.37 nM in experiment [3].

B2: 96F1C4-hz (humanized anti-human CCR8 monoclonal antibody, human IgG1) (antibody, V domains shown)
VH: QVQLVESGAEVKKPGSSVKVSCKASGYTFTDYEMHWVRQAPGQGLEWMGAFDPKTGGTAYAQKFQGRVTLTADKSTSTAYMELSSLRSEDTAVYYCARRRFFDVWGQGTLVTVSS
VL: DAVMTQTPLSLSVTPGQPASISCRSSQSLEHSNGNTYLHWYLQKPGQSPQLLIYRVSNRFSGVPDRFSGSGSGTDFTLKISRVEAEDVGVYYCLQVTHVPFTFGQGTKVEIKR
notes: Built in the pTT5-h.IgG1 vector
As for B2, in experiment [4], the “ADCC activity EC50” value came to 0.0052 mg/L; the “ADCP activity EC50” value came out at 0.107 mg/L; the “Inhibition rate of CCL1-mediated cell migration (%) at 50 µg/mL, BaF3-h.CCR8 cells, Transwell” value turned out to be 60.1%. The binding result with cynomolgus monkey CCR8 [5] is “no binding”. Besides, the binding result with human CCR4 [6] is on record as “no binding (tested: 20 µg/mL)”. The molecule further gave a concentration giving a half-maximal response (EC50) in experiment [7] of 0.0796 mg/L.

B3: 76H1F11-hz (humanized anti-human CCR8 monoclonal antibody, human IgG1) (antibody, V domains shown)
VH: QVQLVESGAEVKKPGSSVKVSCKASGYTFTDYEIHWVRQAPGQGLEWMGAIKPETGGTAYAQKFQGRVTLTSDKSTSTAYMELSSLRSEDTAVYYCTRRRYFDVWGQGTLVTVSS
VL: DAVMTQTPLSLSVTPGQPASISCRSSQSLEHSDGITYLHWYLQKPGQSPQLLIYRVSNRFSGVPDRFSGSGSGTDFTLKISRVEAEDVGVYYCLQVTHVPFTFGQGTKVEIKR
For B3, the “ADCC activity EC50” value in experiment [4] came to 0.0148 mg/L. Besides, the binding result in the experiment with cynomolgus monkey CCR8 [5] is reported as “no binding”; with human CCR4 [6], “no binding (tested: 20 µg/mL)”. Moreover, the midpoint of the response in experiment [7], the EC50, lay at 0.322 mg/L.

B4: 96F1C4 (anti-human CCR8 mouse monoclonal antibody) (antibody, V domains shown)
VH: QVQLQQSGAELVRPGASVTLSCKASGYTFTDYEMHWVKQTPVHGLEWIGAFDPKTGGTAYNQKFKGKAILTADKSSSTAYMELRSLTSEDSAVYYCARRRFFDVWGAGTTVTVSS
VL: DAVMTQTPLSLPVSLGDQASISCRSSQSLEHSNGNTYLHWYLQKPGQSPQLLIYRVSNRFSGVLDRFSGSGSGTDFTLKISRVEAEDLGVYFCLQVTHVPFTFGTGTKLEIK
notes: as for B1
For the molecule B4, the binding result with human CCR4 [1] is reported as “no binding (tested: 10 µg/mL)”. For the same molecule, in experiment [3], the midpoint of the response, the EC50, lay at 0.16 nM.

B5: 13F3H6-hz-eADCC (13F3H6-hz with ADCC-enhanced IgG1 Fc) (antibody)
heavy: EVQLVESGGGLVQPGESLRLSCAASGFTFNAYAMNWVRQAPGQGLEWVARIRTKSNNYATYYADSVKGRFTISRDDSKNTLYLEMNSLRAEDTAVYYCVRHKKVREGYAMDYWGQGTLVTVSSASTKGPSVFPLAPSSKSTSGGTAALGCLVKDYFPEPVTVSWNSGALTSGVHTFPAVLQSSGLYSLSSVVTVPSSSLGTQTYICNVNHKPSNTKVDKKVEPKSCDKTHTCPPCPAPELVGGPSVFLLPPKPKDTLMISRTPEVTCVVVDVSHEDPEVKFNWYVDGVEVHNAKTKPPEEQYNSTLRVVSVLTVLHQDWLNGKEYKCKVSNKALPAPIEKTISKAKGQPREPQVYTLPPSREEMTKNQVSLTCLVKGFYPSDIAVEWESNGQPENNYKTTPLVLDSDGSFFLYSKLTVDKSRWQQGNVFSCSVMHEALHNHYTQKSLSLSPGK
light: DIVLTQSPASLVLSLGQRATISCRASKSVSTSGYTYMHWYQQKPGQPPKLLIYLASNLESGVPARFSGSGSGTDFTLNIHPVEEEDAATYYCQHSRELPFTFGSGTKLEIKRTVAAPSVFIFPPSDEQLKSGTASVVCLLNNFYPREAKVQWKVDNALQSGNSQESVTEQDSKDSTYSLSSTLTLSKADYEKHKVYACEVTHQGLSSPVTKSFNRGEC
notes: also called 13F3H6-eADCC
Consider B5, for which, in experiment [4], the “ADCC activity EC50” value is 0.00117 mg/L; the “ADCP activity EC50” value was 0.0647 mg/L; the “Inhibition rate of CCL1-mediated cell migration (%) at 50 µg/mL, BaF3-h.CCR8 cells, Transwell” value was determined as 73.5%. In experiment [8], this molecule gave a half-maximal effective concentration (EC50) of 0.0244 mg/L.
